Measured values taken from PMC9596381, “GPC3-Unc5 receptor complex structure and role in cell migration” (Cell, 2022).

Experiments:
[1] = target: T1, murine GPC3 ectodomain, residues 31-559 (mGPC3^ecto) (mouse, UniProt Q8CFZ4 31-559); test: SPR; Unc5A-D ectodomains immobilised; hGPC3^core or mGPC3^ecto injected in a 2-fold dilution series (top 4.5 uM) with Fc control protein, Nano^glue or Nano^break kept constant at 9 uM (with hGPC3^core) or 4.5 uM (with mGPC3^ecto); conditions: both partners purified
T1 construct: mouse glypican-3 (GPC3), residues 31-559; source: HEK293 cells, purified
T1 sequence (Q8CFZ4 31-559): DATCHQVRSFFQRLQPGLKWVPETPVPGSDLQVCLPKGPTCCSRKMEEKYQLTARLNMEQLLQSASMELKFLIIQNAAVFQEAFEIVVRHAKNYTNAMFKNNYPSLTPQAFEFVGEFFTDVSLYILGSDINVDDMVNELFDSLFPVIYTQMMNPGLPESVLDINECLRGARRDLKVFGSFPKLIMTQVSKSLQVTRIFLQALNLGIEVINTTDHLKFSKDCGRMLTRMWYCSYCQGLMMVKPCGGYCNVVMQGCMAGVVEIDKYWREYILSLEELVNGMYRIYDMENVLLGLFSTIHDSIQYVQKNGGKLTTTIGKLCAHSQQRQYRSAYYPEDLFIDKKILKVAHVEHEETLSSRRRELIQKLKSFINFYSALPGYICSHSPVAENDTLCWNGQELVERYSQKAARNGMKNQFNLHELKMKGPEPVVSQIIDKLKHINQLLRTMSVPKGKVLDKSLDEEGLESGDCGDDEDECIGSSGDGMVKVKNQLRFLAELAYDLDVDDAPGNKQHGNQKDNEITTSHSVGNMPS

[2] = target: T2, human glypican-3 core domain, residues 32-483 (hGPC3^core) (human, UniProt P51654 32-483, N-linked glycans at N124 and N241); test: as above; conditions: both partners purified
T2 construct: human glypican-3 (GPC3), core domain, residues 32-483; Only partly cleaved at the furin-like site (R355-R358); the two fragments stay covalently attached; The forward primer starts at Met1; source: HEK293T or GnTI-deficient HEK293S, transiently transfected, secreted, purified (HisTrap, SEC); not shown: His6, C-terminal, kept
T2 sequence (P51654 32-483): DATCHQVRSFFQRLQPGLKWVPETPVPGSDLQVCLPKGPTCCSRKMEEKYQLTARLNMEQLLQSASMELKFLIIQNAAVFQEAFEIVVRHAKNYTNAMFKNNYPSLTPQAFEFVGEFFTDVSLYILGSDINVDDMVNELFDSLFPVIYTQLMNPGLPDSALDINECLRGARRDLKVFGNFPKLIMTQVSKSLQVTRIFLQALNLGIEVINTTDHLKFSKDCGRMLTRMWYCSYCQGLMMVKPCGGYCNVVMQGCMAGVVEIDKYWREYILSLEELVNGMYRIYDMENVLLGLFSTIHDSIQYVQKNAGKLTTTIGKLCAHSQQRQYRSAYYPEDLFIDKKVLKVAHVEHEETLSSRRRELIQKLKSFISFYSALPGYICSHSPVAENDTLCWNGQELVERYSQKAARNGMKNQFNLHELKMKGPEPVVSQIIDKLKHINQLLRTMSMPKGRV

B1: mouse Unc5A ectodomain, residues 1-359 (mUnc5A^ecto) (domain or fragment)
chain: not shown
modifications: biotin on the Avi-tag
notes: signal peptide in the construct; mouse Unc5A, residues 1-359; source: HEK293 cells, purified; not shown: Avi-tag, C-terminal, kept
- binding result [1]: binds
- binding result [2]: binds
